The record followed here is article PMC7308506.

The Kd is the equilibrium constant for the complex coming apart.

One assay addresses thrombin (UniProt P00734).
Assay [1] addresses LCTX-F2 (Lycosa singoriensis). In words: SPR; Biacore 3000; LCTX-F2 amine-coupled to CM5 (2,000 RU); FXIIa, kallikrein, FXa and thrombin as analytes, 0-100 ug/ml in twofold dilutions; 25 C; HBS-EP (10 mM HEPES pH 7.4, 3 mM EDTA, 150 mM NaCl, 0.05% P20); 30 ul/min, 120 s association, 300 s dissociation. (Surface plasmon resonance follows binding to a sensor surface in real time, without labels.)

Consider LCTX-F2 (peptide), for which, in the assay with kallikrein, the increase of the activity of kallikrein (chromogenic substrate) at 3 µM LCTX-F2 is 33.3%. In addition, the increase of the relative protease activity of FXIIa (chromogenic substrate) at 0.03, 0.3 and 3 µM LCTX-F2: 1.2%, 44.0%, 96.0% in the assay with activated factor XII was 96%. The same substance had an increase of the activity of FXa (chromogenic substrate) at 3 µM LCTX-F2 in the assay with activated factor X of 34.8%. Moreover, the increase of the activity of thrombin (chromogenic substrate) at 3 µM LCTX-F2 with thrombin was determined as 36.9%.
In assay [1], activated factor X (enzyme) returned a Kd of 0.18 µM.
Regarding activated factor XII (enzyme), in assay [1], the Kd was determined as 7.2 µM.
Consider kallikrein (enzyme), for which the dissociation constant (Kd) in assay [1] worked out at 4.6 µM.
“thrombin (from UniProt P00734 364-622; P00734 364-622) (enzyme)” showed a Kd in assay [1] of 0.7 µM.
